# Source: US20140023641A1 (MERCK SERONO S A, published 2014)
# B1: anti-GM-CSF 4K21 hIgG1 K antibody (MSB0010259), recombinant chimeric 4K21 (antibody, V domains shown)
# VH: EVQLVESGGGLVKSGGSLKLSCAASGFAFSAYDMSWVRQTPEKRLELVAYISSGGSSFYYPDTVKGRFTISRDNAKNTLYLQMSSLKSEDTAMYYCTRHLGFDYWGQGTTLTVSS
# VL: DVVMTQTPLSLPVSLGDQASISCRSSQSLVNSNGNTYLHWFLQKPGQSPKLLIYKVSNRFSGVPDRFSGSGSGTDFTLKISRVEAEDLGVYFCSQSTHVPPTFGGGTKLEIK
# notes: Murine variable domains fused to human constant IgG1 heavy chain and kappa light chain domains; also called parental chimeric 4K21
# B2: murine hybridoma-derived 4K21 antibody (antibody, V domains shown)
# VH: EVQLVESGGGLVKSGGSLKLSCAASGFAFSAYDMSWVRQTPEKRLELVAYISSGGSSFYYPDTVKGRFTISRDNAKNTLYLQMSSLKSEDTAMYYCTRHLGFDYWGQGTTLTVSS
# VL: DVVMTQTPLSLPVSLGDQASISCRSSQSLVNSNGNTYLHWFLQKPGQSPKLLIYKVSNRFSGVPDRFSGSGSGTDFTLKISRVEAEDLGVYFCSQSTHVPPTFGGGTKLEIK
# notes: also called murine 4K21; murine monoclonal antibody 4K21
# B3: humanized parental anti-GM-CSF 4K21 VH3-07.1AL+VK2-A3.2 hIgG1 K antibody (MSB0010439) (antibody, V domains shown)
# VH: EVQLVESGGGLVQPGGSLRLSCAASGFAFSAYDMSWVRQAPGKRLELVAYISSGGSSFYYPDTVKGRFTISRDNAKNSLYLQMNSLRAEDTAVYYCTRHLGFDYWGQGTLVTVSS
# VL: DIVMTQSPLSLPVTPGEPASISCRSSQSLVNSNGNTYLHWYLQKPGQSPQLLIYKVSNRFSGVPDRFSGSGSGTDFTLKISRVEAEDVGVYYCSQSTHVPPTFGQGTKVEIK
# notes: hIgG1 kappa; also called humanized parental 4K21 hVH hVL; humanized parental 4K21
# B4: 4K21 hVH S55K-T62S hVL S27eY-N28I-H34S-N53R-H93F (MSB0010629) (antibody, V domains shown)
# VH: EVQLVESGGGLVQPGGSLRLSCAASGFAFSAYDMSWVRQAPGKRLELVAYISSGGKSFYYPDSVKGRFTISRDNAKNSLYLQMNSLRAEDTAVYYCTRHLGFDYWGQGTLVTVSS
# VL: DIVMTQSPLSLPVTPGEPASISCRSSQSLVNYIGNTYLSWYLQKPGQSPQLLIYKVSRRFSGVPDRFSGSGSGTDFTLKISRVEAEDVGVYYCSQSTFVPPTFGQGTKVEIK
# notes: Tested as IgG ('optimized 4K21 IgGs'); the humanized parent is hIgG1 kappa; also called optimized 4K21 antibody with S27eY; 4K21 (4K21 VH S55K-T62S VL S27eY-N28I-H34S-N53R-H93F)
# B5: 4K21 hVH S55K-T62S hVL N28I-H34S-N53R-H93F (MSB0010628) (antibody, V domains shown)
# VH: EVQLVESGGGLVQPGGSLRLSCAASGFAFSAYDMSWVRQAPGKRLELVAYISSGGKSFYYPDSVKGRFTISRDNAKNSLYLQMNSLRAEDTAVYYCTRHLGFDYWGQGTLVTVSS
# VL: DIVMTQSPLSLPVTPGEPASISCRSSQSLVNSIGNTYLSWYLQKPGQSPQLLIYKVSRRFSGVPDRFSGSGSGTDFTLKISRVEAEDVGVYYCSQSTFVPPTFGQGTKVEIK
# notes: Tested as IgG ('optimized 4K21 IgGs'); the humanized parent is hIgG1 kappa; also called optimized 4K21 antibody; 4K21 (4K21 VH S55K-T62S VL N28I-H34S-N53R-H93F)
# Tests used:
# [1] = target: T1, human GM-CSF I117 isoform (human, UniProt P04141 18-144); assay: cell-based or functional assay
# [2] = target: T2, human GM-CSF T117 isoform (human, UniProt P04141 18-144); assay: cell-based or functional assay
# [3] = target: T3, macaca GM-CSF (rhesus, Macaca mulatta; cynomolgus, Macaca fascicularis, identical sequence) (Macaca mulatta / Macaca fascicularis, UniProt Q0MUT8 18-144 (Chlorocebus aethiops entry), limits assumed); assay: cell-based or functional assay
# T3 chain: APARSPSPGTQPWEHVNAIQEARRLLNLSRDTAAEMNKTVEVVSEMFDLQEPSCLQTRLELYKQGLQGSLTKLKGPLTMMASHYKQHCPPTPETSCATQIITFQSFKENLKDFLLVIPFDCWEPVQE
# [4] = target: T2, human GM-CSF T117 isoform; assay: KinExA, affinity in solution; largest Kd ratio across the three GM-CSF targets, by Table 3 hGM-CSF T117 (174 pM) against hGM-CSF I117 (17 pM)
# Experimental: (§1) The 4K21 and reference antibodies were incubated at concentration below the expected Kd with serial dilutions of human GM-CSF I117 or T117, or macaca GM-CSF up to equilibrium. The remaining free antibody was measured in a Kinetic exclusion assay with the KinExA® instrument. Kd was calculated by fitting the curve of the signal obtained versus the GM-CSF concentrations. The average of two experiments using different IgG concentrations was calculated.
# [5] = target: T1, human GM-CSF I117 isoform; assay: KinExA, affinity in solution, average n = 2
# Experimental: as §1
# [6] = target: T2, human GM-CSF T117 isoform; assay: KinExA, affinity in solution, average n = 2
# Experimental: as §1
# [7] = target: T3, macaca GM-CSF (rhesus, Macaca mulatta; …); assay: KinExA, affinity in solution, average n = 2
# Experimental: as §1
# [8] = target: T1, human GM-CSF I117 isoform; assay: TF-1 proliferation assay and KinExA
# Experimental: To determine potency and affinity of the antibody, Kd measurements and a proliferation bioassay of TF-1 cells were performed. TF-1 is an erythroleukemic cell line from blood, which proliferates in response to e.g. GM-CSF. Kd determination was carried out with the Kinetic Exclusion Assay (KinExA®; Sapidyne Instruments, Inc., Boise, Id., USA).
# [9] = target: T1, human GM-CSF I117 isoform; assay: cell-based or functional assay; remark: listed apart in the source
# [10] = target: T2, human GM-CSF T117 isoform; assay: cell-based or functional assay; remark: listed apart in the source
# [11] = target: T3, macaca GM-CSF (rhesus, Macaca mulatta; …); assay: cell-based or functional assay
# [12] = target: T1, human GM-CSF I117 isoform; assay: cell-based or functional assay; remark: listed apart in the source
# [13] = target: T2, human GM-CSF T117 isoform; assay: cell-based or functional assay; remark: listed apart in the source
# [14] = target: T2, human GM-CSF T117 isoform; assay: cell-based or functional assay; remark: listed apart in the source
# [15] = target: T3, macaca GM-CSF (rhesus, Macaca mulatta; …); assay: cell-based or functional assay
# human GM-CSF A117 mutant = target: T4, human GM-CSF A117 mutant (human, UniProt P04141 18-144); assay: competition ELISA: antibody binding to coated human GM-CSF, soluble human GM-CSF A117 as competitor (one condition, concentration not given)
# T4 construct: also called hGM-CSF A117
# Text: Detection of humanized parental anti-GM-CSF 4K21 binding to coated wild-type GM-CSF is competed away by soluble […]. Binding of all optimized 4K21 antibodies to the GM-CSF coated wells is not affected anymore by the presence of A117 protein in solution.
# [16] = target: T3, macaca GM-CSF (rhesus, Macaca mulatta; …); assay: KinExA, affinity in solution; largest Kd ratio across the three GM-CSF targets, by Table 3 macaca (11 pM) against hGM-CSF I117 (4 pM)
# Experimental: as §1
Binder,Fold improvement of humanized parental 4K21 on I117 (TF-1 proliferation IC50) [1] [fold],"IC50 (pM), inhibition of GM-CSF induced TF-1 proliferation (32 pM GM-CSF, average n = 3) [1] [pM]",Fold human T117/I117 (TF-1 proliferation IC50) [2] [fold],Fold improvement of humanized parental 4K21 on T117 (TF-1 proliferation IC50) [2] [fold],"IC50 (pM), inhibition of GM-CSF induced TF-1 proliferation (32 pM GM-CSF, average n = 3) [2] [pM]",Fold improvement of humanized parental 4K21 on macaca (TF-1 proliferation IC50) [3] [fold],Fold macaca/human I117 (TF-1 proliferation IC50) [3] [fold],"IC50 (pM), inhibition of GM-CSF induced TF-1 proliferation (32 pM GM-CSF, average n = 3) [3] [pM]",Kd [5] [nM],Kd [6] [nM],Kd [7] [nM],fold preference for GM-CSF I117 versus T117 [8] [fold],"IC50 (pM), inhibition of GM-CSF induced IL-8 secretion in U937 cells (65 pM GM-CSF, n = 2) [9] [pM]","IC50 (pM), inhibition of GM-CSF induced IL-8 secretion in U937 cells (65 pM GM-CSF, n = 2) [10] [pM]","IC50 (pM), inhibition of GM-CSF induced IL-8 secretion in U937 cells (65 pM GM-CSF, n = 2) [11] [pM]","Emax (%), inhibition of CD11b upregulation on neutrophils [12] [%]","IC50 (nM), inhibition of CD11b upregulation on neutrophils [12] [nM]","Emax (%), inhibition of CD11b upregulation on neutrophils [13] [%]","IC50 (nM), inhibition of CD11b upregulation on neutrophils [13] [nM]",binding result (human GM-CSF A117 mutant),also measured
B1,0.9,130,10.8,1,1410,0.7,9.3,1220,0.017,0.174,0.104,> 10,,,,,,,,,fold affinity difference between the 2 hGM-CSF isoforms and the macaca ortholog [4]: ≤ 10 fold
B2,,,,,,,,,,,,> 10,,,,,,,,,
B3,1,121,11.6,1,1400,1,6.6,793,0.021,0.164,0.063,> 10,170,930,1120,65,3.06,68,31.6,,"fold worse IC50 on T117 than on I117, CD11b upregulation in neutrophils [14]: 10 fold; fold less efficient neutralization than on human GM-CSF (TF-1 proliferation assay) [15]: < 10 fold"
B4,4.4,28,1.6,32,44,19,1.5,42,,,,,311,354,286,,,,,binds,
B5,6.6,18,1.2,63,22,11,3.9,72,0.004,0.007,0.011,,257,181,501,84,1.65,97,1.98,binds,fold affinity difference between the 2 hGM-CSF isoforms and the macaca ortholog [16]: < 3 fold
